Measured values published in PMC8376927, “14-3-3 proteins inactivate DAPK2 by promoting its dimerization and protecting key regulatory phosphosites” (Communications Biology, 2021).
Substitutions are numbered along the chain they refer to. Non-standard residues stand in square brackets, D forms with d. No end group written: not given here. *: point of attachment. 5FAM = O=C1OC2(c3ccc(O)cc3Oc3cc(O)ccc32)c2ccc(C(=O)*)cc21; pT = C[C@@H](OP(=O)(O)O)[C@H](N)C(=O)O

B1: DAPK2_RNTD, full-length human DAPK2 mutant with the C terminus S367STS370 changed to R367NTD370, autophosphorylated (enzyme)
chain: MFQASMRSPNMEPFKQQKVEDFYDIGEELGSGQFAIVKKCREKSTGLEYAAKFIKKRQSRASRRGVSREEIEREVSILRQVLHHNVITLHDVYENRTDVVLILELVSGGELFDFLAQKESLSEEEATSFIKQILDGVNYLHTKKIAHFDLKPENIMLLDKNIPIPHIKLIDFGLAHEIEDGVEFKNIFGTPEFVAPEIVNYEPLGLEADMWSIGVITYILLSGASPFLGDTKQETLANITAVSYDFDEEFFSQTSELAKDFIRKLLVKETRKRLTIQEALRHPWITPVDNQQAMVRRESVVNLENFRKQYVRRRWKLSFSIVSLCNHLTRSLMKKVHLRPDEDLRNCESDTEEDIARRKALHPRRRRNTD
modifications: phosphothreonine at 369 (stoichiometrically autophosphorylated); autophosphorylated Ser318 (the peptide with Ser318 carried one or two phosphoresidues)
notes: Death-associated protein kinase 2 (DAPK2, DRP-1), human, full length; Cloned into modified pRSFDuet-1 (BamHI, NotI)
B2: DAPK2_RNTD S318A (enzyme)
chain: B1 chain with S318A
notes: Death-associated protein kinase 2 (DAPK2), human, full length, made from DAPK2_RNTD
B3: DAPK2 WT, full-length human DAPK2, autophosphorylated (enzyme)
chain: B1 chain with R367S, N368S, D370S
modifications: autophosphorylated at Ser318 and at two additional sites, at least, within the C-terminal 14-3-3-binding motif
notes: Death-associated protein kinase 2 (DAPK2, DRP-1), human, full length
B4: Human 14-3-3γ WT (natural protein, UniProt P61981 1-247, looked up)
chain: MVDREQLVQKARLAEQAERYDDMAAAMKNVTELNEPLSNEERNLLSVAYKNVVGARRSSWRVISSIEQKTSADGNEKKIEMVRAYREKIEKELEAVCQDVLSLLDNYLIKNCSETQYESKVFYLKMKGDYYRYLAEVATGEKRATVVESSEKAYSEAHEISKEHMQPTHPIRLGLALNYSVFYYEIQNAPEQACHLAKTAFDDAIAELDTLNEDSYKDSTLIMQLLRDNLTLWTSDQQDDDGGEGNN
notes: 14-3-3 protein gamma, human, wild type; it speaks of the protein as a dimer
B5: Human 14-3-3γΔC (residues 1-235 lacking the C-terminal 13-residue-long flexible tail) (domain or fragment, UniProt P61981 1-235, looked up)
chain: MVDREQLVQKARLAEQAERYDDMAAAMKNVTELNEPLSNEERNLLSVAYKNVVGARRSSWRVISSIEQKTSADGNEKKIEMVRAYREKIEKELEAVCQDVLSLLDNYLIKNCSETQYESKVFYLKMKGDYYRYLAEVATGEKRATVVESSEKAYSEAHEISKEHMQPTHPIRLGLALNYSVFYYEIQNAPEQACHLAKTAFDDAIAELDTLNEDSYKDSTLIMQLLRDNLTLWTS
notes: 14-3-3 protein gamma, human, residues 1-235 (C-terminally truncated)
B6: FAM-ctDAPK2-pT369 peptide (FAM-RRRSSpTS) (peptide)
peptide: 5FAM-RRRSS[pT]S
notes: source: synthetic peptide (Pepscan Presto BV)

What was measured:
[1] = biological target: T1, dansyl-labeled rat calmodulin (DANS-CaM) (rat, UniProt P0DP29 1-149, dansyl label (dansyl chloride; site not stated)); experiment: time-resolved fluorescence intensity and anisotropy decay; 25 μM DANS-CaM, 30 μM DAPK2, with or without 100 μM 14-3-3γ; 23 °C; 20 mM HEPES-NaOH pH 7.5, 150 mM NaCl, 1 mM CaCl2, 1 mM TCEP; settings: both partners purified
T1 construct: calmodulin, rat; Measured with 1 mM CaCl2; also called DANS-Ca^2+/CaM; dansyl-Ca^2+/CaM

[2] = biological target: T2, rat calmodulin protein (Ca2+/CaM) (rat, UniProt P0DP29 1-149); experiment: AUC; sedimentation velocity, 50 μM mixture of DAPK2_RNTD with Ca2+/CaM (1:1 molar ratio) compared with 50 μM DAPK2_RNTD alone; 20 °C; settings: both partners purified
T2 construct: calmodulin, rat; also called rat CaM

[3] = biological target: B1; experiment: AUC; sedimentation velocity, mixtures of 6 μM DAPK2_RNTD and 0.6-60 μM 14-3-3γ; 20 °C; 50 mM HEPES-NaOH pH 7.5, 150 mM NaCl, 1 mM TCEP; settings: both partners purified
[4] = biological target: B1; experiment: AUC; sedimentation velocity, 10-molar excess of 14-3-3γ over DAPK2_RNTD; 20 °C; settings: both partners purified
[5] = biological target: B1; experiment: AUC; sedimentation velocity, 10-molar excess of DAPK2_RNTD over 14-3-3γ; 20 °C; settings: both partners purified
[6] = biological target: the molecule itself; experiment: crystal structure; binary complex 14-3-3γΔC:ctDAPK2-pT369 mixed 1:1.2; hanging drop, 290 K; space group R3; 2.7 Å
[7] = biological target: B5; experiment: fluorescence polarisation; 14-3-3γ (160 µM and binary dilution series) incubated 1 h with 50 nM FAM-labelled peptide; 20 mM HEPES-NaOH pH 7.4, 150 mM NaCl, 0.1% Tween 20, 0.1% BSA; one-site-binding model; apparent KD; settings: both partners purified

B1
binding result [1]: binds
binding result [2]: binds

B2
binding result [1]: binds

B3
binding result [1]: binds

B4
Kd [3]: < 100 nM
stoichiometry N [4]: 2 14-3-3γ per DAPK2 (printed 2:1)
stoichiometry N [5]: 1 14-3-3γ per DAPK2 (printed 2:2)

B5
binding result [6]: binds

B6
Kd [7]: 161 ± 7 nM
